Drawing on article PMC4020817, this text covers stoichiometry N, binding signal (fold higher affinity than wild type) and Kd for two substances.

pKd: −log10 of the molar value.

In data set [1] the target is recombinant APOBEC3A (rA3A) (human) (UniProt P31941). As to the kind of experiment: SEC; rA3A without concentration on a Superose-12 gel filtration column (FPLC) with protein standards, in the buffer used for measuring deaminase activity; fractions immunoblotted with anti-A3A antibody. A general note: In gel filtration, larger molecules generally elute earlier.
Data set [2] deals with A3A E72A/delWG104-5 E72A;del104-105 (Homo sapiens) (UniProt P31941). The experiment in a line: extrinsic fluorescence titration. The conditions noted are these: EMSA: 0.5 pmol oligo, 2 ug rA3A in 10 ul deaminase buffer (composition not given), 4 C, 1 h, 6% native PAGE. Intrinsic fluorescence: 225 nM rA3A, 25 mM Tris pH …. Background: A gel shift assay detects complexes by their altered migration in electrophoresis.
Sequence of A3A E72A/delWG104-5 E72A;del104-105 (Homo sapiens) (P31941 other isoform, or with tags, fused parts or gaps E72A E72A): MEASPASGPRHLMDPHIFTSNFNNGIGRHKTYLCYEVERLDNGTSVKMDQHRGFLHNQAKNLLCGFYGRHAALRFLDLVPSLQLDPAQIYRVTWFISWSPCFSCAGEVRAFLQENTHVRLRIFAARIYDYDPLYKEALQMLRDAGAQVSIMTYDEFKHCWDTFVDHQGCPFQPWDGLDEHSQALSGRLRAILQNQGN

Data set [3] has as its system rA3A wild type (Homo sapiens). As to the kind of experiment: fluorescence binding titration. The conditions noted are these: EMSA: 0.5 pmol oligo, 2 ug rA3A in 10 ul deaminase buffer (composition not given), 4 C, 1 h, 6% native PAGE. Intrinsic fluorescence: 225 nM rA3A, 25 mM Tris pH ….

By stoichiometry N is commonly meant the number of molecules, sites or subunits per partner or assembly. In general, pKd refers to the Kd on a negative log10 scale, so that one unit is a factor of ten.

Sequence of recombinant APOBEC3A (rA3A), P31941 1-199 (enzyme; other documents disagree on this pair) (P31941 whole entry): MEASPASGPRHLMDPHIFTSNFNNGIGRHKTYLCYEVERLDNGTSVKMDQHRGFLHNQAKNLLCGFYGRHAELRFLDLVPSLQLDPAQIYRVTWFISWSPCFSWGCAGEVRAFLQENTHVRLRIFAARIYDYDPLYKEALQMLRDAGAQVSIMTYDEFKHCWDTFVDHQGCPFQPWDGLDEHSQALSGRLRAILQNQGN

For the substance “recombinant APOBEC3A (rA3A), P31941 1-199 (enzyme; other documents disagree on this pair)”, in data set [1], the stoichiometry N was found to be 2.

The substance ssDNA oligo of fluorescence Kd assays had a binding signal (fold higher affinity than wild type) in data set [2] of 3. In data set [3], this substance had a negative-log Kd (pKd) of 6.80.
